# Laboratory results published in patent US8290713 (LONZA BIOLOGICS, dated 2012).
# Non-standard residues stand in square brackets, D forms with d.
# B1: ZP-0212 (peptide)
# peptide: Ac-[dR][dY][dS][dV][dL][dI]-NH2
# SMILES: CC[C@@H](C)[C@@H](NC(=O)[C@@H](CC(C)C)NC(=O)[C@H](NC(=O)[C@@H](CO)NC(=O)[C@@H](Cc1ccc(O)cc1)NC(=O)[C@@H](CCCNC(=N)N)NC(C)=O)C(C)C)C(N)=O
# B2: ZP-0213 (peptide)
# peptide: Ac-[dE][dK][dY][dS][dV][dL][dI]-NH2
# SMILES: CC[C@@H](C)[C@@H](NC(=O)[C@@H](CC(C)C)NC(=O)[C@H](NC(=O)[C@@H](CO)NC(=O)[C@@H](Cc1ccc(O)cc1)NC(=O)[C@@H](CCCCN)NC(=O)[C@@H](CCC(=O)O)NC(C)=O)C(C)C)C(N)=O
# B3: ZP-0214 (peptide)
# peptide: Ac-[dD][dR][dY][dS][dV][dL][dI]-NH2
# SMILES: CC[C@@H](C)[C@@H](NC(=O)[C@@H](CC(C)C)NC(=O)[C@H](NC(=O)[C@@H](CO)NC(=O)[C@@H](Cc1ccc(O)cc1)NC(=O)[C@@H](CCCNC(=N)N)NC(=O)[C@@H](CC(=O)O)NC(C)=O)C(C)C)C(N)=O
# B4: ZP-0215 (peptide)
# peptide: H-[dQ][dY][dS][dV][dL][dI]-NH2
# SMILES: CC[C@@H](C)[C@@H](NC(=O)[C@@H](CC(C)C)NC(=O)[C@H](NC(=O)[C@@H](CO)NC(=O)[C@@H](Cc1ccc(O)cc1)NC(=O)[C@H](N)CCC(N)=O)C(C)C)C(N)=O
# B5: ZP-0221 (peptide)
# peptide: H-[dQ][dY][dT][dV][dL][dI]-NH2
# SMILES: CC[C@@H](C)[C@@H](NC(=O)[C@@H](CC(C)C)NC(=O)[C@H](NC(=O)[C@H](NC(=O)[C@@H](Cc1ccc(O)cc1)NC(=O)[C@H](N)CCC(N)=O)[C@H](C)O)C(C)C)C(N)=O
# B6: ZP-0222 (peptide)
# peptide: H-[dQ][dY][dK][dV][dL][dI]-NH2
# SMILES: CC[C@@H](C)[C@@H](NC(=O)[C@@H](CC(C)C)NC(=O)[C@H](NC(=O)[C@@H](CCCCN)NC(=O)[C@@H](Cc1ccc(O)cc1)NC(=O)[C@H](N)CCC(N)=O)C(C)C)C(N)=O
# B7: ZP-0228 (peptide)
# peptide: H-[dP][dY][dS][dV][dL][dI]-NH2
# SMILES: CC[C@@H](C)[C@@H](NC(=O)[C@@H](CC(C)C)NC(=O)[C@H](NC(=O)[C@@H](CO)NC(=O)[C@@H](Cc1ccc(O)cc1)NC(=O)[C@H]1CCCN1)C(C)C)C(N)=O
# B8: ZP-0229 (peptide)
# peptide: H-[dQ][dY][dS][dV][dL][dV]-NH2
# SMILES: CC(C)C[C@@H](NC(=O)[C@H](NC(=O)[C@@H](CO)NC(=O)[C@@H](Cc1ccc(O)cc1)NC(=O)[C@H](N)CCC(N)=O)C(C)C)C(=O)N[C@@H](C(N)=O)C(C)C
# Target: α-synuclein (UniProt P37840 1-140)
# Assay: cell-based or functional assay
# Note: test concentration or dose not given here.
Binder,% decrease in ThT fluorescence [%],% decrease in rate of aggregation [%],% increase in Lag phase [%]
B1,51.1,44.9,-14.4
B2,25.6,12.9,29.4
B3,20.4,4.8,-12.6
B4,27.6,17.5,3.1
B5,24.7,22.8,-22.4
B6,42.3,34.3,7.7
B7,40.8,46.2,38.2
B8,17.8,24.3,33.5
